# In PMC12274486, “A glyoxal-specific aldehyde signaling axis in Pseudomonas aeruginosa that influences quorum sensing and infection” (Nature Communications, 2025):
# Changes are numbered by the printed parent chain. Names and notes keep the numbering of the source. Values joined by “and” are separate entries in the source; they are usually repeats but may differ in a detail not shown here. Equal entries are not always repeated.
# T1: PqsA full-length protein, purified (Pseudomonas aeruginosa MPAO1, UniProt Q9I4X3 1-517)
# T1 construct: also called PqsAFL; FL
# T1 sequence: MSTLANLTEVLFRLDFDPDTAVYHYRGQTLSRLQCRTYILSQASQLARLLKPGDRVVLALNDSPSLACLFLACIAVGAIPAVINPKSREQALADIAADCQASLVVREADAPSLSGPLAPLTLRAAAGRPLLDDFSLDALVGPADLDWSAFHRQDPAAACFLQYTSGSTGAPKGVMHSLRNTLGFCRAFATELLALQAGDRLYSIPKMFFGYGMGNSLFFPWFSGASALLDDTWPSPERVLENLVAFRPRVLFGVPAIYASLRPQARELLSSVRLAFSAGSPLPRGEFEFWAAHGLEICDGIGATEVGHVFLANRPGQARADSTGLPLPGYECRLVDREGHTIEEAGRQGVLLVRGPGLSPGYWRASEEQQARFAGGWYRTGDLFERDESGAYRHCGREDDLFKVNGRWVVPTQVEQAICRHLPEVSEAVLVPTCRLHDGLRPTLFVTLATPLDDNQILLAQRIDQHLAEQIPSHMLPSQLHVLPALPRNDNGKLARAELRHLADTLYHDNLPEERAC
# B1: Aldehyde responsive quorum-sensing Inhibitor (ArqI), wild type, purified (natural protein)
# chain: SGGGMTYHVLVQFDVPSDKREAFAAAGLFDANGSLQNEPGTLRFEVIRDENNRNRFYLDEVYEDEAAFLQHCRNETIARFYELIDSYAFGPLFLFKGYRVEG
# notes: also called PA0709; WT ArqI
# B2: ArqI R16A variant, purified (natural protein)
# chain: B1 chain with R20A
# modifications: in the crystal: βME-modified Cys68
# notes: source: E. coli, purified as the wild type (Ni-NTA, ULP1 cleavage, SEC)
# B3: ArqI R49Q variant, purified (natural protein)
# chain: B1 chain with R53Q
# notes: source: E. coli, purified as the wild type
# B4: ArqI P87G variant, purified (natural protein)
# chain: B1 chain with P91G
# notes: as for B3
# Assays:
# [1] = target: T2, PqsA (PqsAFL) (Pseudomonas aeruginosa, UniProt Q9I4X3); experiment: anthraniloyl-CoA formation, absorbance at […] nm; assay type: biochemical; details: assay with added ArqI
# T2 construct: full length, expressed in E. coli T7 Express with 6x-His-CPD tag, tag cut
# [2] = target: T3, ArqI (PA0709), Aldehyde responsive quorum-sensing Inhibitor (Pseudomonas aeruginosa, UniProt Q9I5L9); experiment: X-ray crystallography and mass spectrometry of Arg49 adduct; assay type: binding; details: covalent; Arg49 in chains C, D, E; hemiaminal or carboxymethylarginine adduct (+58 amu)
# T3 construct: full length (98 residues), expressed in E. coli as His6-SUMO fusion, SUMO tag cut, N-terminal SGGG left; hexamer; numbering from Met1
# [3] = target: T1, PqsA full-length protein, purified; experiment: other fluorescence titration; details: both partners purified
# [4] = target: the molecule itself; experiment: crystal structure; native ArqI, crystals from 50 mM sodium acetate pH 5.0, 12% PEG 4000; C 222_1 cell, 6 subunits in the asymmetric unit, 2.0 Å
# [5] = target: the molecule itself; experiment: crystal structure
# [6] = target: the molecule itself; experiment: SEC; HiLoad Superdex 75 16/600 pg or Superose 6 Increase 10/300 GL; 2 mL at 10 mg/mL; 50 mM Tris-Cl pH 8.0, 150 mM NaCl, 1 mM βME (a buffer with 500 mM NaCl, pH 7.4, is also named); RT
molecule,measurement,setting,value
"CC(C)(COP(=O)(O)OP(=O)(O)OC[C@H]1O[C@@H](n2cnc3c(N)ncnc32)[C@H](O)[C@@H]1OP(=O)(O)O)[C@@H](O)C(=O)NCCC(=O)NCCS [CoA, coenzyme A]","anthraniloyl-CoA formation, absorbance at 375 nm",[1]; with anthranilate and ATP,"purified PqsA protein with CoA, ATP, and anthranilate"
"O=CC=O [GO, glyoxal]",X-ray crystallography and mass spectrometry of Arg49 adduct,[2],"A glyoxal modification was observed on Arg49 for three subunits (chains C, D and E)"
Nc1ccccc1C(=O)O [anthranilate],"anthraniloyl-CoA formation, absorbance at 375 nm",[1]; with CoA and ATP,"purified PqsA protein with CoA, ATP, and anthranilate"
B1,Kd,[3],43 µM
same,stoichiometry N,[4],6
B2,stoichiometry N,[5],6
same,stoichiometry N,[6],2
B3,stoichiometry N,[6],6 and 2
B4,stoichiometry N,[6],2
